Experiments:
[1] = biological target: T1, human EphA4 extracellular region-SEAP-His protein (human, UniProt P54764 20-547); assay: SPR (Biacore A100), antibody captured, EphA4-SEAP-His analyte
T1 construct: also called hEphA4-SEAP-His
Protocol: (§1) The binding affinity of antibody A obtained in Example 1 for mouse and human EphA4 was determined by surface plasmon resonance (SPR) using Biacore A100 (GE Healthcare). First, a rat anti-mouse IgG₁ antibody produced with a conventional procedure by immunizing rat with a mouse IgG₁ antibody was immobilized on sensor chip CM5. The immobilization of the rat anti-mouse IgG1 antibody on sensor chip CM5 was performed by the amine coupling method using N-hydroxysuccinimide (NHS) and N-ethyl-N′-(3-dimethylaminopropyl)carbodiimide hydrochloride (EDC). Ethanolamine was used in blocking (the sensor chip and the reagents for immobilization were all manufactured by GE Healthcare). The antibody was diluted with a buffer solution for immobilization (10 mM sodium acetate, pH 4.5) into 1 to 2 μg/mL and immobilized on the sensor chip according to the protocol attached to Biacore A100. Antibody A was diluted with a running buffer solution HBS-EP (GE Healthcare, BR-1001-88), injected onto a flow cell for 120 seconds, and captured (amount of the antibody captured: approximately 70 to 100 RU). Subsequently, mouse or human EphA4 extracellular region-SEAP-His serially diluted in the range of 50, 25, 12.5, 6.3, 3.1, 1.6, 0.8, and 0 nM using HBS-EP was added to the sensor chip for 120 seconds. […]

[2] = biological target: T2, mouse EphA4 extracellular region-SEAP-His protein (mouse); assay: as above
Protocol: as §1

[3] = biological target: T2, mouse EphA4 extracellular …; assay: SPR (Biacore T200), mouse EphA4 extracellular region-SEAP-His captured on an anti-His antibody CM5 chip, antibody as analyte at 0.6-50 nM, 1:1 fit (run alongside F(ab')2)
Protocol: (§2) Next, the binding affinity of antibody A-Fab and antibody A-F(ab′)₂ for mouse and human EphA4 was determined by surface plasmon resonance (SPR) using Biacore T200 (GE Healthcare). Antibody A obtained in Example 1 was used as a control for the comparison of each fragment. First, an anti-His tag antibody was immobilized on sensor chip CM5. The immobilization of the anti-His tag antibody on sensor chip CM5 was performed by the amine coupling method using N-hydroxysuccinimide (NHS) and N-ethyl-N′-(3-dimethylaminopropyl)carbodiimide hydrochloride (EDC). Ethanolamine was used in blocking (the sensor chip and the reagents for immobilization were all manufactured by GE Healthcare). The antibody was diluted with a buffer solution for immobilization (10 mM sodium acetate, pH 4.5) into 3 μg/mL and immobilized on the sensor chip according to the protocol attached to Biacore T200.
(§3) Mouse or human EphA4 extracellular region-SEAP-His protein was diluted with a running buffer solution HBS-EP (GE Healthcare, BR-1001-88), injected onto a flow cell for 120 seconds, and captured (amount of the protein captured: approximately 10 to 20 RU). Subsequently, antibody A (50, 16.7, 5.6, 1.9, 0.6, and 0 nM), antibody A-Fab (500, 166.7, 55.6, 18.5, 6.2, and 0 nM), or antibody A-F(ab′)₂ (50, 16.7, 5.6, 1.9, 0.6, and 0 nM) serially diluted using HBS-EP was added to the sensor chip for 120 seconds. Binding reaction curves were sequentially observed at the time of the addition (association phase, for 120 sec) and after the completion of the addition (dissociation phase, for 900 sec). After the completion of each observation, the sensor chip was regenerated by the addition of 3 M MgCl₂ (Wako Pure Chemical Industries) (for 30 sec). The obtained binding reaction curves were subjected to fitting analysis with 1:1 binding models using software BIA evaluation attached to the system to calculate the binding affinity (KD=kd/ka) for mouse and human EphA4.

[4] = biological target: T2, mouse EphA4 extracellular …; assay: SPR (Biacore T200), mouse EphA4 extracellular region-SEAP-His captured on an anti-His antibody CM5 chip, antibody as analyte at 0.6-50 nM, 1:1 fit
Protocol: as §2, §3

[5] = biological target: T1, human EphA4 extracellular …; assay: SPR (Biacore T200), human EphA4 extracellular region-SEAP-His captured on an anti-His antibody CM5 chip, antibody as analyte at 0.6-50 nM, 1:1 fit (run alongside F(ab')2)
Protocol: as §2, §3

T1 sequence (P54764 20-547): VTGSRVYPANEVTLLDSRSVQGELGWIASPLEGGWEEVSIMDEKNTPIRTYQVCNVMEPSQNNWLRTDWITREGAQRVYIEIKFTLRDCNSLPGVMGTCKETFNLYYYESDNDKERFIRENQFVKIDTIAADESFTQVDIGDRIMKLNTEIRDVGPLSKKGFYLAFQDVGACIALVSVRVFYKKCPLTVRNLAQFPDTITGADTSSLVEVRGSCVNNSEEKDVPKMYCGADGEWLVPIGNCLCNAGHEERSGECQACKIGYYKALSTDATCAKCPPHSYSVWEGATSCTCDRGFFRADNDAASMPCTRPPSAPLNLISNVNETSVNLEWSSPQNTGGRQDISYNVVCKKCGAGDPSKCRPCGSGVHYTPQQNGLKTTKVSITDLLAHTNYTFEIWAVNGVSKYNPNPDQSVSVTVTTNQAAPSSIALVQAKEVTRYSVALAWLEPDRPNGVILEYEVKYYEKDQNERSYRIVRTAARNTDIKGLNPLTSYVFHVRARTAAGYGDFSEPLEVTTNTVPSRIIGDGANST
T2 sequence (chain, as listed by the source limits assumed): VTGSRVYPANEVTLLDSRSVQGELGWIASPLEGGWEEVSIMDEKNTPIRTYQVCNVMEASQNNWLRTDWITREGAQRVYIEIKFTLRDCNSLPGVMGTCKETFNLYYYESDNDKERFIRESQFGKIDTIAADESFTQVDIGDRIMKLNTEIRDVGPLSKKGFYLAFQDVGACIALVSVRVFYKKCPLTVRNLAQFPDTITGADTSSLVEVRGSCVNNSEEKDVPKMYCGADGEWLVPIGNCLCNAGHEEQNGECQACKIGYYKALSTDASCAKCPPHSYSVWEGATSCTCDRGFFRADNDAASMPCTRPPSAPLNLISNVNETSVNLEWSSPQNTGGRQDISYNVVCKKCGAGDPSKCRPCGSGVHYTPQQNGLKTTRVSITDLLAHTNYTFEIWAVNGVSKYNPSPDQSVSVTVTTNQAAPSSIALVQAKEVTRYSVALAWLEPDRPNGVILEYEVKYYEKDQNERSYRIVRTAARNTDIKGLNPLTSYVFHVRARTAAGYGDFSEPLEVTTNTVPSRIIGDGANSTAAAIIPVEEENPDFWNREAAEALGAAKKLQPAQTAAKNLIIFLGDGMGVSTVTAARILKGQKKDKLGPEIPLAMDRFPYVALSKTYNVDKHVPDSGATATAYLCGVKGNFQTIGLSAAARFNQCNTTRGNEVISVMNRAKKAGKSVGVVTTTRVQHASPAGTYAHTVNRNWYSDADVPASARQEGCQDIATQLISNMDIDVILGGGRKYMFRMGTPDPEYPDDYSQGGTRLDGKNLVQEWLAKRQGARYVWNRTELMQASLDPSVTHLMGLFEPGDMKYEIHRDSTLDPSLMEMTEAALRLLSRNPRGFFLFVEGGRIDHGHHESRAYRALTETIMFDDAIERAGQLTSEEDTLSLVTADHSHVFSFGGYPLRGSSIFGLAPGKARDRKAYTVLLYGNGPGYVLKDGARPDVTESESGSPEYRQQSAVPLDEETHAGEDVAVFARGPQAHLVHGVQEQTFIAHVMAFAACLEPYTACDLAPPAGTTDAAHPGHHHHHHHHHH

B1: antibody A (antibody, mouse IgG1, kappa, V domains shown)
VH: QIQLVQSGPELKKPGETVKISCKASGYTFTDYSMHWVKQAPGKGLKWMGWINTETGEPTYADDFKGRFAFSLETSASTAYLQINNLKNEDTATYFCARIPLYYYGSRYWYFDVWGAGTTVTVSS
VL: DIQMTQSPASLSVSVGETVTITCRASENIYRNLAWYQQKQGKSPQLLVYAATNLADGVPSRFSGSGSGTQYSLKINSLQSEDFGSYYCQHFWGTPWTFGGGTKLEIKR
notes: mouse IgG1 heavy chain, kappa light chain; purified from hybridoma supernatant; also called anti-EphA4 monoclonal antibody; antibody A-IgG
[1]
  Kd: 0.661 nM
[2]
  Kd: 0.729 nM
[3]
  Kd: 0.0423 nM
  koff: 0.000288 s⁻¹
  kon: 6.81e+06 M⁻¹ s⁻¹
[4]
  Kd: 0.147 nM
  koff: 0.000423 s⁻¹
  kon: 2.88e+06 M⁻¹ s⁻¹
[5]
  Kd: 0.0399 nM
  koff: 0.000236 s⁻¹
  kon: 5.91e+06 M⁻¹ s⁻¹

Reference: US20190077860A1 (EISAI R AND D MANAGEMENT, published 2019)
